Test results reported in PMC5664961 (Biochemical Journal, 2017).

How the values were obtained:
[1] = target: T1, human Cul3 N-terminal domain (NTD, residues M1-L388) with the engineered mutations I342R and L346D (human, UniProt Q13618 1-388, I342R | L346D); test: ITC; KCTD protein titrated into Cul3 in the cell; 15°C; 50 mM HEPES pH 7.5, 150 mM NaCl, 1 mM TCEP, 5% glycerol; single-binding site model; conditions: both partners purified
T1 construct: Cullin-3, human, UniProt Q13618, N-terminal domain residues M1-L388, with the stabilising mutations I342R and L346D; The methods say in general that the eluted His-tagged proteins were cleaved with TEV protease; also called Cullin3; Cul3 NTD; source: E. coli BL21(DE3)R3-pRARE2, purified (nickel-sepharose, TEV cleavage, SEC)

[2] = target: T2, human Cul3 N-terminal domain (NTD, residues M1-L388) with the engineered mutations I342R and L346D (human, UniProt Q13618 1-388, I342R | L346D); test: SEC; KCTD protein alone and mixed with Cul3 NTD at a molar ratio of 1 : 1; UV 280 nm traces; injected at 50 µM; 50 mM HEPES pH 7.5, 150 mM NaCl, 1 mM TCEP; conditions: both partners purified
T2 construct: Cullin-3, human, UniProt Q13618, N-terminal domain residues M1-L388, with I342R and L346D introduced to stabilize the isolated Cullin-repeat domain; only the vector pNIC-CTHF is named, the tag is inferred from it; The general methods say that eluted proteins were cleaved with TEV protease; also called Cullin3; Cul3 NTD; source: E. coli BL21(DE3)R3-pRARE2, purified (nickel-sepharose, SEC)

[3] = target: T2, human Cul3 N-terminal domain (NTD, …); test: ITC; KCTD protein titrated into Cul3 NTD; 15°C; 50 mM HEPES pH 7.5, 150 mM NaCl, 1 mM TCEP, 5% glycerol; single-binding site model; conditions: both partners purified
[4] = target: the molecule itself; test: SEC-MALS; BTB domains alone, injected at 50 µM; Shodex KW-803; 50 mM HEPES pH 7.5, 150 mM NaCl, 1 mM TCEP
[5] = target: T1, human Cul3 N-terminal domain (NTD, …); test: ITC; KCTD5 titrated into Cul3 in the cell; 25°C; 50 mM HEPES pH 7.5, 150 mM NaCl, 1 mM TCEP, 5% glycerol; single-binding site model; conditions: both partners purified
[6] = target: T2, human Cul3 N-terminal domain (NTD, …); test: ITC; KCTD5 titrated into Cul3 NTD; 25°C; 50 mM HEPES pH 7.5, 150 mM NaCl, 1 mM TCEP, 5% glycerol; single-binding site model; conditions: both partners purified
[7] = target: T2, human Cul3 N-terminal domain (NTD, …); test: SAXS; KCTD-Cul3 complexes co-purified over S200, ~10% more Cul3 added, 10 mg/ml injected onto Shodex KW404 at 20°C; 50 mM HEPES pH 7.5, 150 mM NaCl, 1 mM TCEP, 5% glycerol; curves compared with a 5 : 5 model; conditions: both partners purified
[8] = target: the molecule itself; test: as above
[9] = target: the molecule itself; test: crystal structure; BTB domains alone, sitting-drop vapour diffusion at 20 and 4°C, data at 100 K

B1: SHKBP1 BTB domain (residues G18-S120) (domain or fragment, human, UniProt Q8TBC3 18-120, looked up)
chain: GEVIHLNVGGKRFSTSRQTLTWIPDSFFSSLLSGRISTLKDETGAIFIDRDPTVFAPILNFLRTKELDPRGVHGSSLLHEAQFYGLTPLVRRLQLREELDRSS
notes: TEV cleavage stated in general in the methods; source: E. coli BL21(DE3)R3-pRARE2, purified (nickel-sepharose, TEV cleavage, SEC); not shown: His6, N-terminal, cleaved
Ka [1]: 1.15e+07 M⁻¹
stoichiometry N [1]: 0.92

B2: human SHKBP1 BTB domain (residues G18-S120) (domain or fragment, UniProt Q8TBC3 18-120, looked up)
chain: B1 chain
notes: cleaved with TEV protease by the general methods; source: E. coli BL21(DE3)R3-pRARE2, purified (nickel-sepharose, TEV cleavage, SEC); not shown: His6, N-terminal, cleaved
stoichiometry N [2]: 1 KCTD : Cul3 (5 : 5)
Kd [3]: 87 nM

B3: human KCTD16 BTB domain (residues G16-E133) (domain or fragment, UniProt Q68DU8 16-133, looked up)
chain: GSAVPNSFPEVVELNVGGQVYFTRHSTLISIPHSLLWKMFSPKRDTANDLAKDSKGRFFIDRDGFLFRYILDYLRDRQVVLPDHFPEKGRLKREAEYFQLPDLVKLLTPDEIKQSPDE
notes: KCTD16, human, UniProt Q68DU8, BTB domain residues G16-E133; cleaved with TEV protease by the general methods; source: E. coli BL21(DE3)R3-pRARE2, purified (nickel-sepharose, TEV cleavage, SEC); not shown: His6, N-terminal, cleaved
stoichiometry N [4]: 5

B4: KCTD5 BTB + CTD multi-domain construct (residues G40-M234) (domain or fragment, human, UniProt Q9NXV2 40-234, looked up)
chain: GSVSKWVRLNVGGTYFLTTRQTLCRDPKSFLYRLCQADPDLDSDKDETGAYLIDRDPTYFGPVLNYLRHGKLVINKDLAEEGVLEEAEFYNITSLIKLVKDKIRERDSKTSQVPVKHVYRVLQCQEEELTQMVSTMSDGWKFEQLVSIGSSYNYGNEDQAEFLCVVSKELHNTPYGTASEPSEKAKILQERGSRM
notes: as for B1
Ka [5]: 7.95e+08 M⁻¹
stoichiometry N [5]: 0.94

B5: human KCTD5 BTB + CTD multi-domain construct (residues G40-M234) (domain or fragment, UniProt Q9NXV2 40-234, looked up)
chain: B4 chain
notes: KCTD5, human, UniProt Q9NXV2, BTB + CTD residues G40-M234; cleaved with TEV protease by the general methods; also called multi-domain KCTD5; source: E. coli BL21(DE3)R3-pRARE2, purified (nickel-sepharose, TEV cleavage, SEC); not shown: His6, N-terminal, cleaved
Kd [6]: 1 nM

B6: KCTD5 BTB domain (residues G40-R145) (domain or fragment)
chain: not shown
notes: Pentamer by SEC-MALS; TEV cleavage stated in general in the methods; source: E. coli BL21(DE3)R3-pRARE2, purified (nickel-sepharose, TEV cleavage, SEC); not shown: His6, N-terminal, cleaved
Ka [5]: 1.8e+07 M⁻¹
stoichiometry N [5]: 0.81

B7: human KCTD5 BTB domain (residues G40-R145) (domain or fragment)
chain: not shown
notes: KCTD5, human, UniProt Q9NXV2, BTB domain residues G40-R145; cleaved with TEV protease by the general methods; source: E. coli BL21(DE3)R3-pRARE2, purified (nickel-sepharose, TEV cleavage, SEC); not shown: His6, N-terminal, cleaved
Kd [6]: 55 nM
stoichiometry N [4]: 5

B8: KCTD13 BTB domain (residues G27-L144) (domain or fragment, human, UniProt Q8WZ19 27-144, looked up)
chain: GPAAYGLKPLTPNSKYVKLNVGGSLHYTTLRTLTGQDTMLKAMFSGRVEVLTDAGGWVLIDRSGRHFGTILNYLRDGSVPLPESTRELGELLGEARYYLVQGLIEDCQLALQQKRETL
notes: TEV cleavage stated in general in the methods; also called BACURD1; source: E. coli BL21(DE3)R3-pRARE2, purified (nickel-sepharose, TEV cleavage, SEC); not shown: His6, N-terminal, cleaved
Ka [1]: 1.01e+07 M⁻¹
stoichiometry N [1]: 0.87

B9: human KCTD13 BTB domain (residues G27-L144) (domain or fragment, UniProt Q8WZ19 27-144, looked up)
chain: B8 chain
notes: KCTD13, human, UniProt Q8WZ19, BTB domain residues G27-L144; cleaved with TEV protease by the general methods; also called BACURD1; source: E. coli BL21(DE3)R3-pRARE2, purified (nickel-sepharose, TEV cleavage, SEC); not shown: His6, N-terminal, cleaved
stoichiometry N [7]: 1 KCTD : Cul3 (5 : 5)
stoichiometry N [8]: 5
stoichiometry N [9]: 4
Kd [3]: 100 nM

B10: human KCTD10 BTB domain (residues G26-E135) with F61L (domain or fragment, UniProt Q9H3F6 26-135, looked up)
chain: GTSPSSKYVKLNVGGALYYTTMQTLTKQDTMLKAMLSGRMEVLTDSEGWILIDRCGKHFGTILNYLRDGAVPLPESRREIEELLAEAKYYLVQGLVEECQAALQNKDTYE
notes: KCTD10, human, UniProt Q9H3F6, BTB domain residues G26-E135; cleaved with TEV protease by the general methods; source: E. coli BL21(DE3)R3-pRARE2, purified (nickel-sepharose, TEV cleavage, SEC); not shown: His6, N-terminal, cleaved
stoichiometry N [9]: 4
